Target: UBE2L3 (human, UniProt P68036 1-154)
Assay: ITC

UBE2L3, sequence (P68036 whole entry): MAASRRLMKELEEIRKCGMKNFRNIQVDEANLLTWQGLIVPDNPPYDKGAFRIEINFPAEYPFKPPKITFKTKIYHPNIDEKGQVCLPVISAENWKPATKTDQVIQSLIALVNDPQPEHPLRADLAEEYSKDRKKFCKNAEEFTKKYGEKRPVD

Kd: 12 µM
B1: CUL9^ARIH-RBR (domain or fragment)
chain: SPEAVATLASLQLPAGRTMSPQEVEGLMKQTVRQVQETLNLEPDVAQHLLAHSHWGAEQLLQSYSEDPEPLLLAAGLCVHQAQAVPVRPDHCPVCVSPLGCDDDLPSLCCMHYCCKSCWNEYLTTRIEQNLVLNCTCPIADCPAQPTGAFIRAIVSSPEVISKYEKALLRGYVESCSNLTWCTNPQGCDRILCRQGLGCGTTCSKCGWASCFNCSFPEAHYPASCGHMSQWVDDGGYYDGMSVEAQSKHLAKLISKRCPSCQAPIEKNEGCLHMTCAKCNHGFCWRCLKSWKPNHKDYYNCSAMVSKAARQEKRFQDYNERCTFHHQAREFAVNLRNRVSAIHEVPPPRSFTFLNDACQGLEQARKVLAYACVYSFYSQDAEYMDVVEQQTENLELHTNALQILLEETLLRCRDLASSLRLLRADCLSTGMELLRRIQERLLAILQHSAQDFRVGLQSPSVEAWEAKGPNMPGSQPQASSGPEAEEEEEDDEDDVPEWQQDEFDEELDNDSFSYDESENLDQETFFFGDEEEDEDEAYD

From article PMC11257990 (2024)
